# ± gives the uncertainty stated by the source.
# B1: Peripheral plasma membrane protein CASK, residues 488 to 569; numbered along this chain, O14936 (parent)
# chain: VRLVQFQKNTDEPMGITLKMNELNHCIVARIMHGGMIHRQGTLHVGDEIREINGISVANQTVEQLQKMLREMRGSITFKIVP
# Variants of: B1
# Test: abundance fitness (aPCA) (normalised: wild type 0, dead -1); higher = more abundant; growth selection in yeast, the domain comes from the species named
# Conditions: Homo sapiens
row,Variant,abundance fitness
1,VRLVQFQKNTDEPMGITLKMNELNHCIVARIMHGGMIHRQGTLHVKDEIREINGISVANQTVEQLQKMLREMRGSITFKIVP,-0.706 ± 0.077
2,VRLVQFQKNTDEPMGITLKMNELNHCIVARIMHGGMIHRQGTLHVGDEIREINGISVANQTVRQLQKMLREMRGSITFKIVP,-0.121 ± 0.021
3,VRLVQFQKNTDEPMGITLKMNELNMCIVARIMHGGMIHRQGTLHVGDEIREINGISVANQTVEQLQKMLREMRGSITFKIVP,-0.019 ± 0.031
4,VRLVQFQKNTDEPMGITLKMNELNPCIVARIMHGGMIHRQGTLHVGDEIREINGISVANQTVEQLQKMLREMRGSITFKIVP,-0.819 ± 0.06
5,VRLVGFQKNTDEPMGITLKMNELNHCIVARIMHGGMIHRQGTLHVGDEIREINGISVANQTVEQLQKMLREMRGSITFKIVP,0 ± 0.023
6,VRLVQFQKNTDEPMGITLKMNELNHCIVARIMHGGMIHRQGTLHVGDEIREINGISVHNQTVEQLQKMLREMRGSITFKIVP,-0.075 ± 0.049
7,VRLVQFQKNTDEPMGITLKMNELNHCIVARIMHGGMIHRQGTLHVGDEIREINGISVDNQTVEQLQKMLREMRGSITFKIVP,-0.037 ± 0.039
8,VRLVQFQFNTDEPMGITLKMNELNHCIVARIMHGGMIHRQGTLHVGDEIREINGISVANQTVEQLQKMLREMRGSITFKIVP,-0.291 ± 0.051
9,VRLVQFQRNTDEPMGITLKMNELNHCIVARIMHGGMIHRQGTLHVGDEIREINGISVANQTVEQLQKMLREMRGSITFKIVP,-0.021 ± 0.022
10,VRLVQFQKNTDEPMGITLKMNELNHCIVARIAHGGMIHRQGTLHVGDEIREINGISVANQTVEQLQKMLREMRGSITFKIVP,0.058 ± 0.035
11,VRLVQFQKNTDEPMGITLKMNELNHCIVARIMHGRMIHRQGTLHVGDEIREINGISVANQTVEQLQKMLREMRGSITFKIVP,-0.278 ± 0.024
12,VRLVQFQKNTDEPMGITLKMNELNHCIVARIMHGGMIHRQGTLHVGDEIREINGIPVANQTVEQLQKMLREMRGSITFKIVP,0.009 ± 0.031
13,VRLVQFQKNTDEPMGITLKMNELNHCIVARIMHGGMIHRQGTLHVGDEIREINGINVANQTVEQLQKMLREMRGSITFKIVP,-0.032 ± 0.04
14,VRLVQFQKNTDEPMGITLKMNELIHCIVARIMHGGMIHRQGTLHVGDEIREINGISVANQTVEQLQKMLREMRGSITFKIVP,-0.89 ± 0.11
15,VRLVQFQKNTDEPMGITLKMRELNHCIVARIMHGGMIHRQGTLHVGDEIREINGISVANQTVEQLQKMLREMRGSITFKIVP,-0.268 ± 0.025
16,VRLVQFQKNTDEPMGITLKMMELNHCIVARIMHGGMIHRQGTLHVGDEIREINGISVANQTVEQLQKMLREMRGSITFKIVP,-0.258 ± 0.033
17,VRLVQFQKNTDEPMGITLKMNELNHCIVARIMHGGMIHRQGTLHVGDELREINGISVANQTVEQLQKMLREMRGSITFKIVP,-0.089 ± 0.04

row,Variant,abundance fitness
1,VRLVQPQKNTDEPMGITLKMNELNHCIVARIMHGGMIHRQGTLHVGDEIREINGISVANQTVEQLQKMLREMRGSITFKIVP,-0.924 ± 0.071
2,VRLVQFQKNTDEPMGITLKMNELNHCIVARIMHGGMIHRQGTLHVGDEIREINGISVANQTVEQAQKMLREMRGSITFKIVP,-0.166 ± 0.027
3,VRLVQFQKNTDEPMGITLKMNELNHCIVARIMHGGMIHRQYTLHVGDEIREINGISVANQTVEQLQKMLREMRGSITFKIVP,-0.639 ± 0.08
4,VRLVQFQKNTDEPMGITLKMNELNHCIVARIMHGGMIHRQGPLHVGDEIREINGISVANQTVEQLQKMLREMRGSITFKIVP,-0.336 ± 0.033
5,VRLVQFQKNTDEPMGTTLKMNELNHCIVARIMHGGMIHRQGTLHVGDEIREINGISVANQTVEQLQKMLREMRGSITFKIVP,-0.659 ± 0.073
6,VRLVQFQKNTDEPMGITLKMNELNHCIVARIMRGGMIHRQGTLHVGDEIREINGISVANQTVEQLQKMLREMRGSITFKIVP,-0.006 ± 0.024
7,VRLVQFQKNTDEPMGITLKMNELNHCIVARIMHGGMIHRQGTLHVGDEIREINGISVANQTVEQLQKMLREMRGSITFKIWP,-0.102 ± 0.046
8,VRLVQFQKNTDEPMGITLKMNELNHCIVARIMHGGMIHRQGTLHVGDEIREIIGISVANQTVEQLQKMLREMRGSITFKIVP,-0.8 ± 0.21
9,VRLVQFQKNTDEPMGITLKMNELNHCIVARIMHGGMIHRQGTLHVGDEIREIDGISVANQTVEQLQKMLREMRGSITFKIVP,-0.27 ± 0.05
10,VRLVQFQKNTDEPMGITLVMNELNHCIVARIMHGGMIHRQGTLHVGDEIREINGISVANQTVEQLQKMLREMRGSITFKIVP,-0.008 ± 0.025
11,VRLVQFQKNTDEPMGITLKMNELNHCIVARIMHGGMIHLQGTLHVGDEIREINGISVANQTVEQLQKMLREMRGSITFKIVP,-0.138 ± 0.026
12,VRLVQFQKNTDEPMGITLKMNELNHCAVARIMHGGMIHRQGTLHVGDEIREINGISVANQTVEQLQKMLREMRGSITFKIVP,-0.166 ± 0.025
13,VRLVQFQKNTDEPMGITLKMNELNHCKVARIMHGGMIHRQGTLHVGDEIREINGISVANQTVEQLQKMLREMRGSITFKIVP,-0.175 ± 0.038
14,VRLVQFQKNTDEPMGITLKMNELNHCIVARIMHGGMIHRQGTLHVGDEIREINVISVANQTVEQLQKMLREMRGSITFKIVP,-0.797 ± 0.063
15,VRLVQFQKNTDEPMGITLKMNELNHCIVARIMHGGMIHRQGTLHVGDEIREINSISVANQTVEQLQKMLREMRGSITFKIVP,-0.071 ± 0.037
16,VRLVQFQKNTDEPMGITLKMNELNHCIVARIMHGGMIHRQGTLHVGDEIREINGISVANQTVEQLQKMLREMRGSIYFKIVP,-0.112 ± 0.078
17,VRLVQFQKNTDEPMGITLKMNELNHCIVARIMHGGMIHRQGTLHVGDEIREINGISVANETVEQLQKMLREMRGSITFKIVP,-0.085 ± 0.026
